Reference: US20140274782A1, “AFFINITY REAGENTS AND METHODS FOR DETECTION, PURIFICATION, AND PROTEOMIC ANALYSIS OF METHYLATED PROTEINS” (The Board of Trustees of the Leland Stanford Junior …, priority 2013, published 2014)

T1: mono- and di-methylated lysine peptides (H4K20, p53K382 and other histone and non-histone peptides) (Homo sapiens, UniProt Q9Y468)
T1 construct: made in house; host or cells: E. coli
T1 sequence (Q9Y468 258-598): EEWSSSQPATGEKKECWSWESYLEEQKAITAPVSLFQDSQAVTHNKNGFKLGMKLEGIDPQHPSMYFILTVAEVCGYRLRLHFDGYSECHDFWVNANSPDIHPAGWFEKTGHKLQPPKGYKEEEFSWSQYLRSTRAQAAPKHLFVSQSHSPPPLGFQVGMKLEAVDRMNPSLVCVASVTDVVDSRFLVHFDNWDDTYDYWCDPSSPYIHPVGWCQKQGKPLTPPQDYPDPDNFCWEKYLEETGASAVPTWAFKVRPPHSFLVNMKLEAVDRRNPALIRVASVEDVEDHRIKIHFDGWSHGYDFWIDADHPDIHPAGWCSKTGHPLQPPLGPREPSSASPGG


What was measured:
3×MBT domain of L3MBTL1 = test: SILAC proteomic pull-down 3×MBT vs 3×MBTD355N from 293T nuclear extract, LC-MS/MS; format: binding, human
Experimental: Protein pull-downs were performed as described above using 600 μg of nuclear extract prepared with isotopic labels as indicated. After eluting with glutathione, 3×MBT domain was removed by dialysis into high salt and rebinding to GSH-sepharose. Bound proteins were separated by SDS-PAGE and analyzed by in-gel tryptic digest followed by LC-MS/MS. Peptides were identified using MaxQuant version 1.2.2.5 (Cox and Mann (2008) Nat. Biotechnol. 26, 1367-1372) and candidate methylated peptides were verified by manual inspection.
For stable isotope labeling by amino acids in cell culture (SILAC) experiments HEK 293T cells were grown for at least six doublings in DMEM for SILAC supplemented with 10% dialyzed fetal bovine serum (FBS), 230 mg/L L-proline and either 100 mg/L each of L-lysine and L-arginine (“light” medium), D4-L-lysine and ^13C6-L-arginine (“medium” media), or ^13C6^15N2-L-lysine and ^13C6^15N4-L-arginine (Thermo Scientific). Heavy methyl labeling used DMEM without L-Methionine or L-Cysteine supplemented with D3^13C-L-Methionine (Sigma), L-Cysteine (Sigma) and 10% dialyzed FBS.
600 μg of nuclear extract was incubated overnight rotating at 4° C. with 20 μl packed 3×MBT or 3×MBTD355N beads in a total volume of 250 μL with binding buffer. Supernatant was removed and saved for use as a loading control. Beads were washed 4×5 minutes with 0.5 mL binding buffer. Protein was eluted by incubating in 20 μL elution buffer (10 mg/mL glutathione in 50 mM Tris pH 8.0) rotating at 4° C. for four hours. Elutions from 3×MBT and 3×MBTD355N were combined and dialyzed overnight at 4° C. against 10,000× volume of dissociation buffer (50 mM Tris pH 7.5, 750 mM NaCl) in a 0.1 mL Slide-A-Lyzer MINI Dialysis Device with 3.5K molecular weight cutoff (Thermo Scientific). 80 μL of GSH-Sepharose was prepared by washing briefly three times with 0.5 mL binding buffer. Dialyzed proteins were added to the GSH-Sepharose and incubated 4 hours rotating at 4° C. to deplete the GST-fusion domains. Supernatant was transferred to a fresh 1.5 mL tube. Proteins were separated by SDS-PAGE on a 10% polyacrylamide gel and stained using SilverQuest Silver Staining Kit (Life Technologies). Lanes were excised, residual 3×MBT band was removed, and gel was diced into 0.5 mm cubes. Gel pieces were destained and processed by in-gel digestion (Carlson et al. (2011) Science Signaling 4) with sequencing grade trypsin (Promega) and the peptide sample was dried completely in a vacuum centrifuge. To prepare a loading control, 2 μL each of light and heavy nuclear extract were combined, 6 μL of 8M urea was added, proteins were denatured by adding 2 μL of 100 mM dithiothreitol in digest buffer (50 mM ammonium bicarbonate) and heating to 60° C. for 1 hour, cysteine was alkylated by adding 2.2 μL 100 mg/mL iodoacetamide in digest buffer and incubating 1 hour at room temperature in darkness, and proteins were digested by adding 80 μL trypsin (Promega) at 12.5 ng/μL in digest buffer and incubating overnight at room temperature in darkness. Digestion was stopped by adding 10 μL of 10% formic acid.
Each experiment consisted of two sets of pull-downs: “forward” labeling with 3×MBT incubated with light nuclear extract and 3×MBTD355N with medium extract, and a second “reverse” labeling experiment with the label conditions swapped. Proteins were included in the results if they were quantified in both labeling directions. To determine reproducibility the entire experiment including the label swap was duplicated using independent protein preparations and a mass spectrometer at another institution.
For 3×MBT pull-down experiment #1 the gel lane was processed and peptides were loaded off-line onto a first dimension trap column (Waters Xbridge, C18, 10 μm particle size, 100 Å pore size, 5 cm packing length, 150 μm column i.d.). […]

[1] = tested on: mono- and di-methylated lysine peptides (H4K20, p53K382 and other histone and non-histone peptides); test: Peptide pull-down assay with biotinylated peptides, Western blot; format: binding; settings: GST fusions, FIG. 1B
Experimental: (§1) Peptide pull-down assays were performed as previously described (Shi et al. (2006) Nature 442, 96-99), using 1 μg protein and 1 μg peptide per condition in binding buffer (50 mM Tris pH 7.5, 150 mM NaCl, 0.05% NP-40). Peptide arrays were performed as previously described (Bua et al., supra).

[2] = target: T1, mono- and di-methylated lysine peptides (H4K20, p53K382 and other histone and non-histone peptides); test: as above; format: binding
Experimental: as §1

Molecule	amount of protein captured from nucleoplasmic extract (3×MBT domain of L3MBTL1; 293T cells, silver stain, relative to the other domain)	number of the 544 identified proteins enriched at 2-fold versus the other domain (3×MBT domain of L3MBTL1; SILAC)	percentage of the 544 identified proteins enriched at 2-fold versus the other domain (3×MBT domain of L3MBTL1; SILAC) [%]	binding to mono- and di-methylated H4K20- and p53K382-containing peptides [1]	binding to non-methylated peptides ([2]; FIG. 1D)	binding to tri-methylated peptides ([2]; FIG. 1D)	effect of acetylation of a neighboring lysine and phosphorylation of an N-terminally adjacent serine on binding ([2]; FIG. 2E)	effect of phosphorylation on a C-terminally adjacent serine on binding to mono- or di-methylated lysine ([2]; FIGS. 2A and 2B)	effect of arginine methylation one or two residues removed from the lysine methylation site on binding ([2]; FIGS. 2C and 2D)	co-precipitation with panel of mono- and di-methylated peptides ([2]; histone and nonhistone peptides, FIG. 1C)	Protein Ratio 3xMBT/D355N (3×MBT domain of L3MBTL1; SILAC ratio, 293T nuclear extract pull-down, * = protein identified in only one labeling experiment)
3×MBT: three MBT repeats of L3MBTL1 (amino acids 190-530 of accession NP—056293.4), expressed as GST or Flag fusion; methyl-lysine affinity reagent (protein, left off: a dimerising Fc or GST) EEWSSSQPATGEKKECWSWESYLEEQKAITAPVSLFQDSQAVTHNKNGFKLGMKLEGIDPQHPSMYFILTVAEVCGYRLRLHFDGYSECHDFWVNANSPDIHPAGWFEKTGHKLQPPKGYKEEEFSWSQYLRSTRAQAAPKHLFVSQSHSPPPLGFQVGMKLEAVDRMNPSLVCVASVTDVVDSRFLVHFDNWDDTYDYWCDPSSPYIHPVGWCQKQGKPLTPPQDYPDPDNFCWEKYLEETGASAVPTWAFKVRPPHSFLVNMKLEAVDRRNPALIRVASVEDVEDHRIKIHFDGWSHGYDFWIDADHPDIHPAGWCSKTGHPLQPPLGPREPSSASPGG	captured more proteins	313	57.5	binds	does not bind	binds very weakly	did not affect	decreased, but did not eliminate	little effect	co-precipitates with thirteen different mono- and di-methylated peptides	
SCML2: protein with methylated lysine identified in 3xMBT pull-down (protein, UniProt Q9UQR0 1-700, looked up) Sex comb on midleg-like …: MGQTVNEDSMDVKKENQEKTPQSSTSSVQRDDFHWEEYLKETGSISAPSECFRQSQIPPVNDFKVGMKLEARDPRNATSVCIATVIGITGARLRLRLDGSDNRNDFWRLVDSPDIQPVGTCEKEGDLLQPPLGYQMNTSSWPMFLLKTLNGSEMASATLFKKEPPKPPLNNFKVGMKLEAIDKKNPYLICPATIGDVKGDEVHITFDGWSGAFDYWCKYDSRDIFPAGWCRLTGDVLQPPGTSVPIVKNIAKTESSPSEASQHSMQSPQKTTLILPTQQVRRSSRIKPPGPTAVPKRSSSVKNITPRKKGPNSGKKEKPLPVICSTSAASLKSLTRDRGMLYKDVASGPCKIVMSTVCVYVNKHGNFGPHLDPKRIQQLPDHFGPGPVNVVLRRIVQACVDCALETKTVFGYLKPDNRGGEVITASFDGETHSIQLPPVNSASFALRFLENFCHSLQCDNLLSSQPFSSSRGHTHSSAEHDKNQSAKEDVTERQSTKRSPQQTVPYVVPLSPKLPKTKEYASEGEPLFAGGSAIPKEENLSEDSKSSSLNSGNYLNPACRNPMYIHTSVSQDFSRSVPGTTSSPLVGDISPKSSPHEVKFQMQRKSEAPSYIAVPDPSVLKQGFSKDPSTWSVDEVIQFMKHTDPQISGPLADLFRQHEIDGKALFLLKSDVMMKYMGLKLGPALKLCYYIEKLKEGKYS											1.7
